Measured values: PMC5066740

Experiments:
[1] = molecular target: MtWD40-1 (Medicago truncatula)
[2] = molecular target: MtTT8 (Medicago truncatula)
Chain of MtTT8 (Medicago truncatula) (main, as listed by the source): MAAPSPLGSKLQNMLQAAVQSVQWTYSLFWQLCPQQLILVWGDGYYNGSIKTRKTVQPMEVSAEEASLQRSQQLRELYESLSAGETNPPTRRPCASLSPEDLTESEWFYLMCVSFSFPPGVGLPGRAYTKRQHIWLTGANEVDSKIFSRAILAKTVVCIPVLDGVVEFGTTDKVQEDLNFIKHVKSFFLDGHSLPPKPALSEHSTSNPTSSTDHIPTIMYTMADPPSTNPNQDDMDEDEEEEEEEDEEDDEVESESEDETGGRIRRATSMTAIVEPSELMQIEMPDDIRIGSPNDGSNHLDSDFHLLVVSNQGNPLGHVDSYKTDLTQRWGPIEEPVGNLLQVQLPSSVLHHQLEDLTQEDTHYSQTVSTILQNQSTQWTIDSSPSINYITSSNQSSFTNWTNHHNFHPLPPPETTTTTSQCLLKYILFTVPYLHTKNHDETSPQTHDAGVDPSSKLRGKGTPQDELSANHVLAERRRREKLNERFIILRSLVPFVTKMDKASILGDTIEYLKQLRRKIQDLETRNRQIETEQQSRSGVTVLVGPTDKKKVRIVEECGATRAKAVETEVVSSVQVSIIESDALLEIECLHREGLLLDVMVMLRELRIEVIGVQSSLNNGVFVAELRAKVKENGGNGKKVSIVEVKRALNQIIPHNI

Medicago PROANTHOCYANIDIN REGULATOR (MtPAR) (natural protein)
ANR promoter::luciferase reporter activity in Arabidopsis leaves co-bombarded with 35S-driven MtPAR, MtTT8 and MtWD40-1 effectors, against empty vector controls [1]: 9 fold
ANR promoter::luciferase reporter activity in Arabidopsis leaves co-bombarded with 35S-driven MtPAR, MtTT8 and MtWD40-1 effectors, against empty vector controls [2]: 9 fold
